# Reference: patent US20220233706A1 (ANTIKOR BIOPHARMA, published 2022)
# Values joined by “and” are separate entries in the source; they are usually repeats but may differ in a detail not shown here. Identical values can stand only once.
# How the values were obtained:
# [1] = molecular target: T1, HER2 immobilised on a Biacore chip (UniProt P04626 23-652, limits assumed); experiment: Biacore SPR, HER2 amine-coupled to the chip; unmodified scFv (TCT1067)
# T1 construct: also called immobilised HER2 target antigen (Biacore SPR); HER2 chip
# Description: (§1) A standard amine-coupling method was used to prepare all Biacore surfaces (CM5 or CM3), as follows. Flow cells were activated individually by injecting a freshly mixed solution of 0.2M EDC in 0.05 M NHS at 30 μl/min. […] Excess NHS ester was deactivated using a 1 M ethanolamine solution. […] The dissociation time was extended to 3600 s for the highest concentration. Surfaces were regenerated with 45 s injection of MgCl₂ […].
# [2] = molecular target: T1, HER2 immobilised on a Biacore chip; experiment: Biacore SPR, HER2 amine-coupled to the chip
# [3] = molecular target: T1, HER2 immobilised on a Biacore chip; experiment: Biacore SPR, HER2 amine-coupled to the chip; Auristatin-F-C5 conjugate, DAR 5.65
# Description: as §1
# HER2-Fc [4] = molecular target: T2, HER2-Fc (UniProt P04626 23-652); experiment: ELISA on plates coated with 10 µg/ml HER2-Fc, detection anti-T7 peroxidase conjugate, absorption at 450 nm
# T2 construct: Coated at 10 µg/ml on ELISA plates; also called HER2 antigen; immobilised HER2 target antigen (ELISA); not shown: Fc part
# Description: (§2) All proteins were detected using the C-terminal T7 Tag which was not expected to be chemically modified (no lysines present). 96-well Immunosorb ELISA plates were coated with 10 μg/ml HER2-Fc in PBS, followed by the test samples, anti-T7 peroxidase conjugate. Extensive PBS washes were in between each layer and detection was with BM-Blue substrate.
# HER2-Fc [5] = molecular target: T2, HER2-Fc; experiment: ELISA, plates coated with 10 µg/ml HER2-Fc, anti-T7 peroxidase detection
# Description: as §2
binder,measurement,setting,value
"scFv (TCT1067) (scFv, also called unmodified scFv (TCT1067)) scFv: SGSGGSGQVQLVQSGAEVKKPGESLKISCKGSGYSFTSYWIAWVRQMPGKGLEYMGLIYPGDSDTKYSPSFQGQVTISVDKSVSTAYLQWSSLKPSDSAVYFCARHDVGYCTDRTCAAWPEWLGVWGQGTLVTVSSGGGGSGGGGSGGGGSQSVLTQPPSVSAAPGQKVTISCSGSSSNIGNNYVSWYQQLPGTAPKLLIYGHTNRPAGVPDRFSGSKSGTSASLAISGFRSEDEADYYCASWDYTLSGWVFGGGTKLTVLMASMTGGQQMG",Kd,[1],9.5 pM
same,koff,[2],3.7e-05 s⁻¹ and 3.69e-05 s⁻¹
same,kon,[2],3.9e+06 M⁻¹ s⁻¹ and 3.88e+06 M⁻¹ s⁻¹
"scFv (TCT1067)-Auristatin-F-C5 DAR 5.65 (scFv, Auristatin F-C5 on lysine residues; DAR 6.31 by AAA, 4.98 by MS, average 5.65, also called TCT1067-AF-C5 ADC2) scFv: SGSGGSGQVQLVQSGAEVKKPGESLKISCKGSGYSFTSYWIAWVRQMPGKGLEYMGLIYPGDSDTKYSPSFQGQVTISVDKSVSTAYLQWSSLKPSDSAVYFCARHDVGYCTDRTCAAWPEWLGVWGQGTLVTVSSGGGGSGGGGSGGGGSQSVLTQPPSVSAAPGQKVTISCSGSSSNIGNNYVSWYQQLPGTAPKLLIYGHTNRPAGVPDRFSGSKSGTSASLAISGFRSEDEADYYCASWDYTLSGWVFGGGTKLTVLMASMTGGQQMG",koff,[2],1.35e-05 s⁻¹
same,kon,[2],336000 M⁻¹ s⁻¹
same,Kd,[3],0.0403 nM
"scFv (TCT)-Acetate DAR 15 (scFv, acetyl groups (from Acetate-NHS) on lysines, N-terminal amine and further residues, 15 additions by LC-MS, also called TCT-acetate conjugate 1) scFv: SGSGGSGQVQLVQSGAEVKKPGESLKISCKGSGYSFTSYWIAWVRQMPGKGLEYMGLIYPGDSDTKYSPSFQGQVTISVDKSVSTAYLQWSSLKPSDSAVYFCARHDVGYCSSSNCAAWPEYFQHWGQGTLVTVSSGGGGSGGGGSGGGGSQSVLTQPPSVSAAPGQKVTISCSGSSSNIGNNYVSWYQQLPGTAPKLLIYGHTNRPAGVPDRFSGSKSGTSASLAISGFRSEDEADYYCAAWDDSLSGWVFGGGTKLTVLMASMTGGQQMG",Kd,[2],2.9 nM
same,koff,[2],0.0171 s⁻¹
same,kon,[2],5.93e+06 M⁻¹ s⁻¹
"scFv (TCT)-MMAF-C5 ADC 1 (DAR 5.6) (scFv, MMAF-C5 (from MMAF-C5-NHS, compound 78) on lysine residues; DAR 6.64 by AAA, 4.5 by MS, average 5.6, also called scFv (TCT)-MMAF-C5 1 DAR 5.6; scFv (TCT)-MMAF-C5, DAR 6.6) scFv: SGSGGSGQVQLVQSGAEVKKPGESLKISCKGSGYSFTSYWIAWVRQMPGKGLEYMGLIYPGDSDTKYSPSFQGQVTISVDKSVSTAYLQWSSLKPSDSAVYFCARHDVGYCSSSNCAAWPEYFQHWGQGTLVTVSSGGGGSGGGGSGGGGSQSVLTQPPSVSAAPGQKVTISCSGSSSNIGNNYVSWYQQLPGTAPKLLIYGHTNRPAGVPDRFSGSKSGTSASLAISGFRSEDEADYYCAAWDDSLSGWVFGGGTKLTVLMASMTGGQQMG",Kd,[2],5.4 nM
same,koff,[2],0.0042 s⁻¹
same,kon,[2],770000 M⁻¹ s⁻¹
"scFv (TCT)-MMAF-C5 ADC 2 (DAR 6.8) (scFv, MMAF-C5 on lysine residues; DAR 8.0 by AAA, 5.5 by MS, average 6.8, also called scFv (TCT)-MMAF-C5 DAR 6.8; scFv (TCT)-MMAF DAR 8) scFv: SGSGGSGQVQLVQSGAEVKKPGESLKISCKGSGYSFTSYWIAWVRQMPGKGLEYMGLIYPGDSDTKYSPSFQGQVTISVDKSVSTAYLQWSSLKPSDSAVYFCARHDVGYCSSSNCAAWPEYFQHWGQGTLVTVSSGGGGSGGGGSGGGGSQSVLTQPPSVSAAPGQKVTISCSGSSSNIGNNYVSWYQQLPGTAPKLLIYGHTNRPAGVPDRFSGSKSGTSASLAISGFRSEDEADYYCAAWDDSLSGWVFGGGTKLTVLMASMTGGQQMG",Kd,[2],3.6 nM
same,koff,[2],0.0042 s⁻¹
same,kon,[2],1.2e+06 M⁻¹ s⁻¹
"scFv (TCT)-Cemadotin ADC sample 3 (DAR 11) (scFv, Cemadotin on all but one of the surface lysine residues (11/12), DAR 10.96 by AAA, also called TCT-Cem ADC3; TCT-Cemadotin conjugate 3) scFv: SGSGGSGQVQLVQSGAEVKKPGESLKISCKGSGYSFTSYWIAWVRQMPGKGLEYMGLIYPGDSDTKYSPSFQGQVTISVDKSVSTAYLQWSSLKPSDSAVYFCARHDVGYCSSSNCAAWPEYFQHWGQGTLVTVSSGGGGSGGGGSGGGGSQSVLTQPPSVSAAPGQKVTISCSGSSSNIGNNYVSWYQQLPGTAPKLLIYGHTNRPAGVPDRFSGSKSGTSASLAISGFRSEDEADYYCAAWDDSLSGWVFGGGTKLTVLMASMTGGQQMG",EC50 (read off the curve),HER2-Fc [4],~40 nM
same,Kd,HER2-Fc [5],27.5 nM
"scFv (TCT)-Cemadotin ADC sample 1 (DAR 3.9) (scFv, Cemadotin (from Cemadotin-NHS, compound 2) on lysine residues, average DAR 3.9 by AAA, also called TCT-Cem ADC1; TCT-Cemadotin conjugate 1) scFv: SGSGGSGQVQLVQSGAEVKKPGESLKISCKGSGYSFTSYWIAWVRQMPGKGLEYMGLIYPGDSDTKYSPSFQGQVTISVDKSVSTAYLQWSSLKPSDSAVYFCARHDVGYCSSSNCAAWPEYFQHWGQGTLVTVSSGGGGSGGGGSGGGGSQSVLTQPPSVSAAPGQKVTISCSGSSSNIGNNYVSWYQQLPGTAPKLLIYGHTNRPAGVPDRFSGSKSGTSASLAISGFRSEDEADYYCAAWDDSLSGWVFGGGTKLTVLMASMTGGQQMG",EC50 (read off the curve),HER2-Fc [4],~4 nM
same,Kd,HER2-Fc [5],3.3 nM
"scFv (TCT)-Cemadotin ADC sample 2 (DAR 8.2) (scFv, Cemadotin on lysine residues, average DAR 8.2 by AAA, also called TCT-Cem ADC2; TCT-Cemadotin conjugate 2) scFv: SGSGGSGQVQLVQSGAEVKKPGESLKISCKGSGYSFTSYWIAWVRQMPGKGLEYMGLIYPGDSDTKYSPSFQGQVTISVDKSVSTAYLQWSSLKPSDSAVYFCARHDVGYCSSSNCAAWPEYFQHWGQGTLVTVSSGGGGSGGGGSGGGGSQSVLTQPPSVSAAPGQKVTISCSGSSSNIGNNYVSWYQQLPGTAPKLLIYGHTNRPAGVPDRFSGSKSGTSASLAISGFRSEDEADYYCAAWDDSLSGWVFGGGTKLTVLMASMTGGQQMG",EC50 (read off the curve),HER2-Fc [4],~20 nM
same,Kd,HER2-Fc [5],15.5 nM
